According to publication PMC6789926:

B1: mouse ephrin-A2 (soluble, Fc-conjugated) (Fc fusion)
chain: RNEDPARANADRYAVYWNRSNPRFQVSAVGDGGGYTVEVSINDYLDIYCPHYGAPLPPAERMERYILYMVNGEGHASCDHRQRGFKRWECNRPAAPGGPLKFSEKFQLFTPFSLGFEFRPGHEYYYISATPPNLVDRPCLRLKVYVRPTNETLYEAPEPIFTSN
B2: mouse ephrin-A1 (soluble, Fc-conjugated) (Fc fusion)
chain: ADRHIVFWNSSNPKFREEDYTVHVQLNDYLDIICPHYEDDSVADAAMERYTLYMVEHQEYVACQPQSKDQVRWNCNRPSAKHGPEKLSEKFQRFTPFILGKEFKEGHSYYYISKPIYHQESQCLKLKVTVNGKITHNPQAHVNPQEKRLQADDPEVQVLHSIGYS
B3: human ephrin-A5 (soluble, Fc-conjugated) (Fc fusion)
chain: QDPGSKAVADRYAVYWNSSNPRFQRGDYHIDVCINDYLDVFCPHYEDSVPEDKTERYVLYMVNFDGYSACDHTSKGFKRWECNRPHSPNGPLKFSEKFQLFTPFSLGFEFRPGREYFYISSAIPDNGRRSCLKLKVFVRPTNSCMKTIGVHDRVFDVNDKVENSLEPADDTVHESAEPSRGEN

molecular target: tetrameric soluble CedV G (sG) (Cedar virus); test: SPR

Compared with “mouse ephrin-B2 (soluble, Fc-conjugated) (from UniProt P52800 29-232) (Fc fusion)”, “mouse ephrin-B1 (soluble, Fc-conjugated) (from UniProt P52795 25-345) (Fc fusion)” is 2.3-fold lower in Kd: 0.56 nM for the first, 0.24 nM for the second.

Compared with human ephrin-A1 Fc (Fc fusion), B1 is 21-fold lower in Kd: 4210 nM for the first, 196 nM for the second.

Compared with B2, B3 is 4.6-fold higher in Kd: 24.5 nM for the first, 113 nM for the second. The first binds more tightly here.

First: mouse ephrin-B2 (soluble, Fc-conjugated) (from UniProt P52800 29-232) (Fc fusion)
Second: mouse ephrin-B1 (soluble, Fc-conjugated) (from UniProt P52795 25-345) (Fc fusion)
The koff of the first is 3.6-fold higher: 0.00103 s⁻¹ for the first, 0.00029 s⁻¹ for the second.

Going from human ephrin-A1 Fc (Fc fusion) to B1, the koff falls from 0.00981 s⁻¹ to 0.00636 s⁻¹ (1.5-fold).

Compared with B2, B3 is 2.3-fold lower in koff: 0.00179 s⁻¹ for the first, 0.00079 s⁻¹ for the second.

First: mouse ephrin-B2 (soluble, Fc-conjugated) (from UniProt P52800 29-232) (Fc fusion)
Second: B1
The kon of the first is 57-fold higher: 1.84e+06 M⁻¹ s⁻¹ for the first, 32400 M⁻¹ s⁻¹ for the second.

In the case of B2, the kon is reported as 73900 M⁻¹ s⁻¹.
